Substitutions are numbered along the chain they refer to. Each block holds one binder with its values, some of them ahead of it.
Columns and labels:
[1] = target: T1, control peptide 3 (…) displayed by HLA-A2 on T2 cells (human); test: flow cytometry on peptide-pulsed T2 cells, relative MFI (binding over peptide loading)
T1 construct: whole, on cells; also called Ctrl.3
Protocol: (§1) TAP-deficient T2 cells were pulsed with HLA-A2-restricted peptides (MAGE-A4 or control peptides) and incubated with MAGE-A4 binders followed by fluorophore-labeled specific detection antibodies and analysis by flow cytometry.
(§2) Briefly, T-B hybrid T2 cells were incubated with serum-free RPMI1640 medium containing MAGE-A4 or control peptides. […] Peptide loading efficiency was verified by using the ratio between median fluorescent intensity (MFI) of HLA-A2-binding antibody BB7.2 on peptide loaded T2 cells and MFI of unloaded T2 cells (>1). T2 cells were incubated with each of the specific antibodies followed by fluorophore-labeled detection antibodies (anti-kappa light chain or anti-Flag). The cells were fixed and fluorescence was measured by flow cytometry.

[2] = target: T2, control peptide 2 (…) displayed by HLA-A2 on T2 cells (human); test: as above
T2 construct: whole, on cells; also called Ctrl.2
Protocol: as §1, §2

[3] = target: T3, control peptide 1 (…) displayed by HLA-A2 on T2 cells (human); test: as above
T3 construct: whole, on cells; also called Ctrl.1
Protocol: as §1, §2

[4] = target: T4, HLA-A2/MAGE-A4 complex, recombinant (HLA-A*02:01 extracellular domain, human b2m, MAGE-A4 peptide 230-239 …) (human, UniProt P04439 25-299 at identity 0.94); P61769 21-119); test: direct ELISA, plate coated with HLA-A2/MAGE-A4 complex, serial dilution of the antibody
T4 construct: also called MAGE-A4 pMHC; MAGE-A4/HLA-A2 complex
Protocol: All available hits were evaluated for their ability to bind MAGE-A4/HLA-A2 complex and a control peptide/HLA-A2 complex in a direct binding ELISA assay. […] Briefly, 96 well ELISA plates were coated with purified human MAGE-A4/HLA-A2 complex or control HLA-A2 complex. Serial dilutions of antibody molecules were added to the plate and detected by an anti-kappa light chain-HRP (Invitrogen) or a purified rabbit anti-VHH (QVQ) followed by goat anti-rabbit IgG(H+L) HRP (Southern Biotech). […] 5B.

[5] = target: T4, HLA-A2/MAGE-A4 complex, recombinant …; test: SPR

binding result [1]: no binding
binding result [2]: no binding
binding result [3]: no binding
EC50 (read off the curve) [4]: ~0.003 mg/L
B2: M0743 (VHH)
VHH: EVQLVESGGGLVQPGGSLRLSCVASGFTFSWYTMNWVRQAPGKGFEWVASIGSGGTPTTYRESVKGRFTISRDNAKSTLYLQMNSLKPEDTAVYHCENGQARGQGTQVTVSS
notes: Llama-derived VHH; detected with anti-VHH (ELISA) or anti-Flag (flow)

binding result [1]: no binding
binding result [2]: no binding
binding result [3]: no binding
EC50 (read off the curve) [4]: ~1 mg/L
B3: M0763 (Fab, V domains shown)
VH: QSVKESGGRLVTPGTPLTLTCTVSGFSLSNYAMSWVRQAPGKGLEYIGIVSSGGTTYYASWAKGRFTISKTSTTVDLKITSPTTEDTATYFCAKDLYYGPTTYSAFNLWGQGTLVTVSS
VL: SELVLTQPASVQVNLGQTVSLTCTADTLSRSYASWYQLKPGQAPVLLIYRDTSRPSGVPDRFSGSSSGNTATLTISGAQAGDEGDYVCATSDGSGSNFQLFGGGTQLTVTG
notes: also called M763; parental M0763 antibody

The remaining lines, values behind:

B1: M0747 (VHH)
VHH: EVQLVESGGGLAQAGGSLRVSCVASGRPFTKYAWGWFRQAPGKAREFVATITWDGGKTDYADSVKGRFTISKDSAENSIYLQMNSLKPEDTAVYYCAADRNYCVGHRCYVRPDDYDYWGQGTQVTVSS
notes: as for B2
binding result [1]: no binding
binding result [2]: no binding
binding result [3]: no binding
binding result [4]: binds

B4: M1335 (antibody, V domains shown)
VH: EVQLLESGGGSVQPGGSLRLSCTVSGFSLSNYAMSWVRQAPGKGLEWIGIVSSGGTTYYADSVKGRFTISKDTSKNTVYLQMNSLRAEDTASYYCAKDLYYGPSTYFVANLWGQGTSVTVSS
VL: SYELTQPPSVSVSPGQTASITCTADTLSRSYASWYQQKPGQSPVLVIYRDTSRPSGIPERFSGSNSGNTATLTISGTQAMDEADYYCATRPSSGSNFQLFGGGTKLTVL
notes: Variant with the HCDR2 motif SWA replaced by DSV
binding result [5]: binds

B5: M1342 (antibody, V domains shown)
VH: EVQLLESGGGSVQPGGSLRLSCTVSGFSLSNYAMSWVRQAPGKGLEWIGIVSSGGTTYYADSVKGRFTISKDTSKNTVYLQMNSLRAEDTASYYCAKDLYYGPNTDYSAANLWGQGTSVTVSS
VL: B4 VL with L99A
notes: as for B4
binding result [5]: binds

Source: US20240279344A1 (CDR LIFE, published 2024)
